# Results published in the supplement of paper PMC10724198.
# ± gives the standard deviation of the averaged measurements.
# Tested on: Saccharomyces cerevisiae
# Experiment: protein stability index of tFT-peptide fusion (C-terminal peptide) (PSI (0-1 scale)); higher = more stable (slower turnover)
# Conditions: genetic background: wild type; temperature: 30 C
# 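Also: PSI is a weighted mean of sequencing reads over stability bins, variants kept only with over 10 reads, mCherry proximal and sfGFP distal, peptide attached via GGGS linker.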
row,Sequence,protein stability index
1,PPHSALPLPPSP,0.726 ± 0.039
2,PPHSHCPSAPHN,0.643 ± 0.082
3,PPLALPPGPARP,0.738 ± 0.016
4,PPLAMVLYSLFE,0.556 ± 0.013
5,PPLAPDPPPRVY,0.654 ± 0.013
6,PPLAPLPSAPLR,0.674 ± 0.058
7,PPLDPPPAPPPP,0.693 ± 0.08
8,PPLFPYRPPQPT,0.697 ± 0.099
9,PPLHPPPPAFVF,0.64175 ± 0.00037
10,PPLHSSPPAVPP,0.699 ± 0.038
11,PPLLPLSPRPPA,0.704 ± 0.089
12,PPLLPPPHPFPP,0.6656 ± 0.0053
13,PPLLPPPPAFVF,0.668 ± 0.0069
14,PPLLPRLLTPTP,0.671 ± 0.087
15,PPLLPSPPRPPL,0.774 ± 0.078
16,PPLNPPRSPFSP,0.6814 ± 0.0018
17,PPLPAPPQSPHT,0.705 ± 0.028
18,PPLPLTLRSSPS,0.677 ± 0.031
19,PPLPPLPAPSPV,0.652 ± 0.021
20,PPLPPPSVRPSS,0.63 ± 0.028
21,PPLPPPTPLQCL,0.696 ± 0.027
22,PPLPPSLPPPPP,0.63 ± 0.12
23,PPLPPSPPCPPA,0.642 ± 0.079

row,Sequence,protein stability index
1,PPLPPSSPRSLL,0.701 ± 0.018
2,PPLPRLPPPPLP,0.627 ± 0.029
3,PPLPRSPSPPPP,0.644 ± 0.028
4,PPLRLSHFPRAD,0.659 ± 0.06
5,PPLRPAADFRTT,0.733 ± 0.093
6,PPLRPGLLYSPS,0.687 ± 0.019
7,PPLSLSPYPLPH,0.69464 ± 0.0002
8,PPLVHPCPSSHI,0.801 ± 0.088
9,PPNTSVPSSLGR,0.667 ± 0.038
10,PPPAPARPPTPP,0.686 ± 0.11
11,PPPAPPCRLMSP,0.719 ± 0.059
12,PPPAPPLLPPLP,0.718 ± 0.033
13,PPPAPPPSPPSN,0.675 ± 0.044
14,PPPAPPTPPSPP,0.628 ± 0.028
15,PPPARSRCTHPT,0.706 ± 0.026
16,PPPASLTSPRQP,0.731 ± 0.013
17,PPPASPLVPPSP,0.712 ± 0.021
18,PPPAYTPPLPPP,0.669 ± 0.0073
19,PPPCPPPRRHPP,0.605 ± 0.022
20,PPPDSPPLPAPP,0.659 ± 0.033
21,PPPFLQPLPASP,0.729 ± 0.045
22,PPPFSPPAPSPP,0.669 ± 0.053
23,PPPHAKPPPGPL,0.672 ± 0.019

row,Sequence,protein stability index
1,PPPHIPPPPLSA,0.682 ± 0.025
2,PPPHPLPPLPAT,0.744 ± 0.043
3,PPPIPGDPTPCP,0.667 ± 0.021
4,PPPLACLPLSLR,0.71 ± 0.043
5,PPPLACPSPPVT,0.734 ± 0.12
6,PPPLFPALHHPP,0.639 ± 0.051
7,PPPLLPPHLPLL,0.717 ± 0.032
8,PPPLLPPRPLAP,0.731 ± 0.019
9,PPPLLPPTLPPR,0.713 ± 0.047
10,PPPLPLPPPLPP,0.533 ± 0.046
11,PPPLPLPSPPPP,0.671 ± 0.089
12,PPPLPPIPSRPH,0.701 ± 0.019
13,PPPLPPLSPPPS,0.749 ± 0.023
14,PPPLPPPPPAPS,0.692 ± 0.0096
15,PPPLPPPPPPPP,0.673 ± 0.026
16,PPPLPPPTPLPT,0.681 ± 0.12
17,PPPLPPRLPHLA,0.664 ± 0.036
18,PPPLRAFPPPLL,0.648 ± 0.06
19,PPPLSCPRPPIT,0.664 ± 0.031
20,PPPLSLLPPCSP,0.678 ± 0.12
21,PPPNPFRGPFPL,0.663 ± 0.035
22,PPPPAPPPLLLP,0.717 ± 0.044
23,PPPPAPSPPIPP,0.692 ± 0.037

row,Sequence,protein stability index
1,PPPPDPPAPSSP,0.749 ± 0.078
2,PPPPFPPPSPPL,0.7147 ± 0.0063
3,PPPPFRPSPPLP,0.664 ± 0.0084
4,PPPPHAHFPPPP,0.652 ± 0.013
5,PPPPHPPPPLFP,0.714 ± 0.083
6,PPPPHPPRPPRP,0.676 ± 0.0074
7,PPPPLAPAPPAF,0.744 ± 0.016
8,PPPPLLPPPIPL,0.6847 ± 0.0032
9,PPPPLLRSPLHL,0.731 ± 0.011
10,PPPPLPDTLRSP,0.6238 ± 0.0053
11,PPPPLPLPPFSP,0.8017 ± 0.0011
12,PPPPLPPCTPAT,0.6797 ± 0.0047
13,PPPPLPPLSPSP,0.7604 ± 0.0068
14,PPPPLPPSPCSL,0.567 ± 0.019
15,PPPPLRPPAAPP,0.639 ± 0.005
16,PPPPPLPRSPSP,0.807 ± 0.12
17,PPPPPLYLPRFV,0.675 ± 0.056
18,PPPPPPARLPSP,0.711 ± 0.017
19,PPPPPPATPPPS,0.681 ± 0.045
20,PPPPPPGHLPRL,0.76 ± 0.05
21,PPPPPPGSPTRP,0.788 ± 0.075
22,PPPPPPLFPPCP,0.659 ± 0.11
23,PPPPPPLSPSPP,0.756 ± 0.011

row,Sequence,protein stability index
1,PPPPPPLVLSPL,0.678 ± 0.02
2,PPPPPPPHLPSL,0.711 ± 0.079
3,PPPPPPPLPSLR,0.671 ± 0.0086
4,PPPPPPPLVPPL,0.703 ± 0.12
5,PPPPPPPNSHPH,0.678 ± 0.021
6,PPPPPPPPAPLP,0.708 ± 0.089
7,PPPPPPPPLPPP,0.5856 ± 0.0041
8,PPPPPPPPPPPP,0.627 ± 0.031
9,PPPPPPPPPPSL,0.746 ± 0.061
10,PPPPPPPPPPSS,0.709 ± 0.13
11,PPPPPPPPPRSS,0.718 ± 0.021
12,PPPPPPPPSALP,0.719 ± 0.043
13,PPPPPPPRPDPP,0.557 ± 0.04
14,PPPPPPPYPLIP,0.67 ± 0.013
15,PPPPPPRFHALH,0.715 ± 0.021
16,PPPPPPRRSSPP,0.681 ± 0.069
17,PPPPPPSPLGPP,0.674 ± 0.057
18,PPPPPPTPSLRL,0.72 ± 0.021
19,PPPPPPTRCHTP,0.728 ± 0.056
20,PPPPPPVPSRPL,0.644 ± 0.046
21,PPPPPPVRSLPL,0.72 ± 0.088
22,PPPPPRAAPPPP,0.668 ± 0.061
23,PPPPPRHPSSPP,0.71068 ± 0.00014

row,Sequence,protein stability index
1,PPPPPRPPLPHL,0.686 ± 0.038
2,PPPPPSAISPTH,0.732 ± 0.0036
3,PPPPPSFSFPPT,0.706 ± 0.049
4,PPPPPSHPPPLS,0.571 ± 0.0097
5,PPPPPTALLRPP,0.731 ± 0.18
6,PPPPRPAPAPLL,0.6948 ± 0.0067
7,PPPPRTLASPSY,0.679 ± 0.026
8,PPPPSAPPLPLP,0.61 ± 0.018
9,PPPPSLPPPLPF,0.7844 ± 0.0011
10,PPPPSPALPTFP,0.715 ± 0.049
11,PPPPSPFPLPSP,0.6846 ± 0.0024
12,PPPPSPSPLPPS,0.751 ± 0.015
13,PPPPTPPYTPVP,0.623 ± 0.032
14,PPPQGSQPSTLS,0.739 ± 0.051
15,PPPQHLPPPSLS,0.676 ± 0.019
16,PPPRPICCALNS,0.655 ± 0.014
17,PPPRPLQPRPRP,0.6502 ± 0.0019
18,PPPRPPALPPLP,0.69 ± 0.016
19,PPPRPPPASPVP,0.708 ± 0.076
20,PPPRPPSPLSLA,0.643 ± 0.1
21,PPPRPTVPPGSR,0.668 ± 0.014
22,PPPRSPPFPSPL,0.689 ± 0.042
23,PPPRTLARSRLP,0.74 ± 0.016

row,Sequence,protein stability index
1,PPPRTYLPRPRL,0.764 ± 0.0085
2,PPPSDPPPSPPP,0.665 ± 0.016
3,PPPSFPDWRYRW,0.755 ± 0.017
4,PPPSFPPFFPSF,0.731 ± 0.014
5,PPPSHPLSPPRP,0.717 ± 0.24
6,PPPSPAPLPAGP,0.682 ± 0.061
7,PPPSPPPPPSLP,0.669 ± 0.019
8,PPPSPRSAPAAS,0.711 ± 0.1
9,PPPSPTSPPPPS,0.69 ± 0.018
10,PPPSSSLLPLPF,0.817 ± 0.14
11,PPPSTPLSPSSP,0.72 ± 0.11
12,PPPTHPHLSSAL,0.73 ± 0.04
13,PPPTHRDPLPTP,0.684 ± 0.048
14,PPPTPSSLLSTP,0.701 ± 0.057
15,PPPTSSALPALV,0.736 ± 0.037
16,PPPVLSLPPLPV,0.668 ± 0.028
17,PPPVPLPPPRSL,0.736 ± 0.055
18,PPPVPPLGPSRA,0.693 ± 0.044
19,PPQGPVAPRKTP,0.708 ± 0.018
20,PPQPTSPIRMPT,0.735 ± 0.03
21,PPRLASFYIILG,0.571
22,PPRLHPNTPPLL,0.765 ± 0.08
